Experimental data: patent publication US20200102389A1 (Hoffmann-La Roche, published 2020)

B1: HLA-G-0033 (antibody, V domains shown)
VH: EVQLVETGGGLVQSGRSLKLSCVASGFTFNDYWMTWTRQAPGKGLEWVASITNSGGRTYYLDSVRGRFTISRDDAQNTLYLQMNSLRSEDTATYYCTKERIYLTAYWFFDFWGPGTMVTVSS
VL: DTILTQSPALAVSPGERVTISCRASESVSTLIHWYQQKPGQRPKLLIYLASHLESGVPARFSGSGSGTDFTLTIDPVEADDTATYYCQQSWNEPRTFGGGTKLELK
B2: HLA-G-0037 (antibody, V domains shown)
VH: QVQLKESGPGLVQPSQTLSLTCSVSGFSLTTYSVSWVRQPPGKGLEWIGAIWSGGSTDYNSALKSRLRISRDTSKSQVLLKMNSLQTEDRAMYFCVRMNNKFGYWYFDLWGPGTMVTVSS
VL: DTVLTQSPTLAVSPGEKITISCRASETVSTMLHWYQQKPGQQPKLLISLASHLESGVPARFTGSGSGTDFTLTIDPVEADDTATYYCQQTWNDPLTFGSGTKLEIK
B3: HLA-G-0032 (antibody, V domains shown)
VH: QVQLQQSGAELVKPGSSVKISCKASGYSFPSYDMHWIKQQPGNGLEWIGWIYPGNGNTKYNQKFNGKASLTADKSSSTAYMQLSSLTSEDSAVYFCAKPTVATRYNWFAYWGQGTLVTVSS
VL: QIVLTQSPALMSASPGEKVTMTCSASSSVNYMHWYQQKPRSSPKPWIYLTSNLASGVPARFSGSGSGTSYSLTISTMEAEDAATYYCQQWSSNLPITFGSGTKLEIK

Target: T1, recombinant soluble human HLA-G β2M MHC class I complex, monomer (human)
T1 construct: His tagged; also called HLA-G-0003
Assay: SPR (Biacore T200), antibody captured via anti-Fc, HLA-G complex injected, 25 C, 1:1 fit
Procedure: Binding kinetics of anti-HLA-G antibodies to human HLA-G, human HLA-G degrafted and human HLA-A2 were investigated by surface plasmon resonance using a BIACORE T200 instrument (GE Healthcare). All experiments were performed at 25° C. using PBS Buffer (pH 7.4+0.05% Tween20) as running buffer and PBS Buffer (+0.1% BSA) as dilution buffer. Anti-human Fc (JIR009-005-098, Jackson) or anti-rat Fc (JIR112-005-071, Jackson) or anti-Mouse Fc (JIR115-005-071, Jackson) antibodies were immobilized on a Series S CM5 Sensor Chip (GE Healthcare) at pH 5.0 by using an amine coupling kit supplied by GE Healthcare. Anti-HLA-G antibodies were captured on the surface leading to a capturing response of 50-200 RU. HLA-G molecules were injected for 180 s at 30 μl/min with concentrations from 2.5 up to 800 nM (2×1:2 and 4×1:3 dilution series) onto the surface (association phase). The dissociation phase was monitored for 300-600 sec by washing with running buffer. […] Bulk refractive index differences were corrected by subtracting the response obtained from a mock surface. Blank injections were subtracted (double referencing). The derived curves were fitted to a 1:1 Langmuir binding model using the BIAevaluation software.
The above table summarizes the antibody affinities and t1/2 values against wt and degrafted HLA-G as assessed by Surface plasmon resonance (Biacore) analysis. Binding kinetics of anti-HLA-G antibodies to human HLA-G, human HLA-G degrafted and human HLA-A2 were investigated by surface plasmon resonance using a BIACORE T200 instrument (GE Healthcare). All experiments were performed at 25° C. using PBS Buffer (pH 7.4+0.05% Tween20) as running buffer and PBS Buffer (+0.1% BSA) as dilution buffer. Anti-human Fc (JIR009-005-098, Jackson) or anti-rat Fc (JIR112-005-071, Jackson) or anti-Mouse Fc (JIR115-005-071, Jackson) antibodies were immobilized on a Series S CM5 Sensor Chip (GE

Row | Kd [nM] | koff [s⁻¹] | kon [M⁻¹ s⁻¹] | t ½ [min] | Binder
1 | 31.5 | 0.00165 | 52300 | 7 | B1
2 | 6.75 | 0.000882 | 131000 | 13 | B2
3 | 14.9 | 0.00076 | 51200 | 15 | B3

Target: T1, recombinant soluble human HLA-G β2M MHC …
Assay: blocking ELISA, Fc tagged ILT2 coated, 100 nM antibody, soluble HLA-G monomer
Procedure: (§1) The ELISA was set up by coating the Fc tagged ILT2 and ILT4 respectively to Maxisorp microtiter plates. After incubation and washing steps, the respective antibodies were added at a concentration of 100nM. Soluble His tagged monomeric, dimeric or trimeric HLA-G was added to the wells. After incubation and washing steps, detection of bound receptor was carried out by anti-His-antibody-POD conjugates.

Row | % inh. ILT2 [%] | Binder
4 | 75 | B1
5 | 73 | B2
6 | 75 | B3

Target: T1, recombinant soluble human HLA-G β2M MHC …
Assay: competition ELISA, immobilised biotinylated wt HLA-G, competitor c-myc ILT4
Procedure: The above table summarizes the blocking of interaction between rec. HLA-G proteins (monomer and oligomers) to its receptors ILT2 and ILT4 as assessed by ELISA.
(§2) The ELISA was set up by coating the biotinylated antigen wt HLA-G to strepdavidin plates. After incubation and washing steps, the respective antibodies were bound in a concentration range from 8-0 μg in 1:3 dilution steps. C-myc tagged ILT-2 or -4 receptor was added to the HLA-G-antibody complexes. After incubation and washing steps, detection of bound receptor was carried out by anti-cmyc-antibody-POD conjugates. IC50 values were determined from the resulting inhibition curves at the antibody concentrations generating the half-maximal inhibition. In case of the non-biotinylated HLA-G dimer and trimer antigens, immobilization was carried out by random coating on assay plates.

Row | % inh. ILT4 [%] | Binder
7 | 44.6 | B1
8 | 41 | B2
9 | 43 | B3

Target: T1, recombinant soluble human HLA-G β2M MHC …
Assay: competition ELISA, immobilised HLA-G monomer, antibody titrated, competitor c-myc ILT2
Procedure: (§3) Streptavidin coated plates (Nunc, MicroCoat #11974998001) were coated with 25 μl/well biotinylated human wt HLA-G at a concentration of 500 ng/ml and incubated at 4° C. overnight. After washing (3×90 μl/well with PB ST-buffer) 25 μl anti-HLA-G samples were added in decreasing concentrations starting at 8 μg/ml, then diluted in 1:3 steps and incubated 1 h at RT. After washing (3×90 μl/well with PBST-buffer) 25 μl/well c-myc-tagged recombinant ILT-2 receptor was added at a concentration of 150 ng/ml and incubated for 1 h at room temperature. After washing (3×90 μl/well with PBST-buffer) 25 μl/well goat-anti-c-myc-POD (Bethyl #A190-104P 1:7000 in OSE) was added and incubated at RT for 1 h on a shaker. After washing (6×90 μl/well with PBST-buffer), 25 μl/well TMB substrate (Roche, 11835033001) was added and incubated until OD 2-3. Measurement took place on a Tecan Safire 2 instrument at 370/492 nm
as §2

Row | IC50 [nM] | Binder
10 | 8 | B1
11 | 13 | B2
12 | 8.4 | B3

Target: T2, recombinant soluble human HLA-G β2M MHC class I complex, dimer (human)
T2 construct: also called HLA-G Dimer; fraction A9
Assay: ELISA, HLA-G dimer coated on plate
Procedure: The above table summarizes the binding of different rat anti-human HLA-G monoclonal antibodies, derived from wt protein IMS. Shown are the relative EC50 values [ng/ml] of the respective binding to rec. wt monomeric, dimeric and trimeric HLA-G proteins as assessed by ELISA. The ELISA was set up by coating the biotinylated wt HLA-G antigen to strepdavidin plates. After incubation and washing steps, the respective antibodies were bound in a concentration range from 10-0 μg in 1:2 dilution steps. Detection of bound antibodies was carried out by anti-Fc-antibody-POD conjugates. EC50 values were determined from the resulting binding curves at the antibody concentrations generating the half-maximal signal. In case of the non-biotinylated HLA-G dimer and trimer antigens, immobilization was carried out by random coating on assay plates.

Row | EC50 [nM] | Binder
13 | 1.98 | B1
14 | 2.01 | B2
15 | 1.36 | B3

Target: T3, recombinant soluble human HLA-G β2M MHC class I complex, trimer (human)
T3 construct: also called HLA-G Trimer; fraction A8
Assay: competition ELISA, immobilised HLA-G trimer, antibody titrated, competitor c-myc ILT4
Procedure: as §2

Row | IC50 [nM] | Binder
16 | 61.5 | B1
17 | > 200 | B2
18 | 71.3 | B3

Target: T1, recombinant soluble human HLA-G β2M MHC …
Assay: competition ELISA, immobilised biotinylated wt HLA-G, competitor c-myc ILT2
Procedure: as §3, §2

Row | % inh. ILT2 (3 µg/ml antibody) [%] | Binder
19 | 85.3 | B1
20 | 82.9 | B2
21 | 86.8 | B3

Target: T3, recombinant soluble human HLA-G β2M MHC …
Assay: blocking ELISA, Fc tagged ILT2 coated, 100 nM antibody, soluble HLA-G trimer
Procedure: as §1

Row | % inh. ILT2 [%] | Binder
22 | 93 | B1
23 | 93 | B2
24 | 93 | B3
